Earlier results on one substance are cited in publication PMC9775385.

As usually defined, the Kd is the concentration at which binding is half-saturated.

The target of the data set is Nter-BsRNaseY N-terminal domain (Bacillus subtilis) (UniProt O31774).

For the substance “Nter-BsRNaseY N-terminal domain (from UniProt O31774)”, the Kd was 1300 nM.
